B1: SX13-10 (CAR48) (antibody)
chain: QLLESGGGLVKPGGSLRLSCAASGFTFSRYNMNWVRQAPGKGLEWVSFISGSSSYVYYADSVKGRFTISKDNAKNSLYLQMNSLRAEDTAVYYCARSGYCTSTTCYNYYYYYMDVWGKGTTVTVSSSGGGGSGGGGSGGGGSEIVLMQSPGTLSLSPGERATLSCRASQSVSNSYLAWYQQKPGQAPRLLIYGASSRATGIPDRFSGSGSGTDFTLTISRLEPEDFAVFYCQQFGSSPLTFGGGTKVEIK
B2: SX13-1 (CAR42) (antibody)
chain: QLVESGGGLVKPGGSLRLSCAASGFTFSDYSMNWVRQAPGKGLEWVSSISSSSRYKYYADSMKGRFTISRDNAKNSLYLQMNSLRVEDTAVYYCTRGIDYFDYWGQGTLVTVSSSGGGGSGGGGSGGGGSDIQLTQSPSFLSASVGDRVTITCRASQDINNYLAWYQQKPGKAPKFLIHVASTLQSGVPSRFSGSGSGTEFTLTISSLQPEDSATYYCQQLNSYPRTFGQGTKVEIK
B3: SX13-7 (CAR46) (antibody)
chain: QLVESGGGLVKPGGSLRLSCAASGFTFSDYSMNWVRQAPGKGLEWVSSISSSSSYKKYADSVKGRLTISRDNAKNSLYLQMNSLRAEDTAVYYCARGIDYFDYWGQGTLVTVSSSGGGGSGGGGSGGGGSDIQLTQSPSFLSASVGDRVTITCRASQGISSNLAWYQQKPGKDPKVLIYGASTLQSGVPSRFSGSGSGTEFTLTISSLQPEDFATYYCQQLNSYPRTFGQGTKVEIK
B4: SX13-12 (CAR49) (antibody)
chain: QLVESGGGLVKPGGSLRLSCAASGFTFSDYSMNWVRQAPGKGLNWVASISSSSHYKYYADSVKGRFTISRDNAKNSLYLQMNSLRAEDTAVYYCARGIDFFDIWGQGTMVTVSSSGGGGSGGGGSGGGGSDIQLTQSPSFLSASVGDRVTITCRASQDINSYLVWYQQKPGKAPKLLIYTASTLQSGVPSRFSGSGSGTEFTLTIRSLQPEDFATYYCQQLNSYPRTFGQGTKVEIK

In the experiment the target is ENPP3 (human).
ENPP3 (human), sequence (chain, as listed by the source): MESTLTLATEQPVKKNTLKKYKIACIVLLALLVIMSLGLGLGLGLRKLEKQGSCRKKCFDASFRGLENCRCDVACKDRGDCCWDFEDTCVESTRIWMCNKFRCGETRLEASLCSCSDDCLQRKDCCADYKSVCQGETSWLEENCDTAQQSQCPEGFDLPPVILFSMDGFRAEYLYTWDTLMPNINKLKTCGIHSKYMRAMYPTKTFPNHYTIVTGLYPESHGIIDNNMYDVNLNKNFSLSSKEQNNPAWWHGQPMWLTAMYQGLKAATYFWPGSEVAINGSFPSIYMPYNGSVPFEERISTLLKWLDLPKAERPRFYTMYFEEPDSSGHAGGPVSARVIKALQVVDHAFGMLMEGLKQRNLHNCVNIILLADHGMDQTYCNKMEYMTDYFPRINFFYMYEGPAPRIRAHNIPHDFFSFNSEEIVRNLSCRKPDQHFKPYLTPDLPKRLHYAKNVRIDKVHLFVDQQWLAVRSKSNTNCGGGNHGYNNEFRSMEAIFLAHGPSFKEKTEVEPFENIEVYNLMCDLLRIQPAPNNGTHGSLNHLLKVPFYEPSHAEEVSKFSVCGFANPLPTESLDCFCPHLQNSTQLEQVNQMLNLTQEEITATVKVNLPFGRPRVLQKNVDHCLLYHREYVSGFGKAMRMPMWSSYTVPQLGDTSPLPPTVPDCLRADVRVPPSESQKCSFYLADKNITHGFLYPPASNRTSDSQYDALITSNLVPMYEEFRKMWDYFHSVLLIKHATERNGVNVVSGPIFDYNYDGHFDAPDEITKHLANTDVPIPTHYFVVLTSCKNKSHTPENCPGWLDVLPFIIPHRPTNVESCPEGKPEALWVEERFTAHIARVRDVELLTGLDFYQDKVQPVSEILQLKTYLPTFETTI
A word on the Kd: it is the equilibrium constant for the complex coming apart. Read a low Kd as a tighter complex. B1: binding was put at a Kd of 113 nM.
To B2 belongs 18.9 nM; to B3, 4.24 nM.
To B4 belongs 23.5 nM.
